Earlier results in publication PMC3135726.

Legend:
[1] = molecular target: hnRNP M PY-NLS (Homo sapiens) (UniProt P52272)
[2] = molecular target: hnRNP A1 PY-NLS (Homo sapiens) (UniProt P09651)
[3] = molecular target: Snurportin1 IBB (Homo sapiens) (UniProt O95149)
[4] = molecular target: Importin-α IBB (Homo sapiens) (UniProt P52292)
PTHrP (Homo sapiens) = PTHrP (Homo sapiens) (UniProt P12272)
Chain of PTHrP (Homo sapiens) (P12272 37-72): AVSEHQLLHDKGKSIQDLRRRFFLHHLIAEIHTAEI

Chain of Importin-β (Q14974 whole entry): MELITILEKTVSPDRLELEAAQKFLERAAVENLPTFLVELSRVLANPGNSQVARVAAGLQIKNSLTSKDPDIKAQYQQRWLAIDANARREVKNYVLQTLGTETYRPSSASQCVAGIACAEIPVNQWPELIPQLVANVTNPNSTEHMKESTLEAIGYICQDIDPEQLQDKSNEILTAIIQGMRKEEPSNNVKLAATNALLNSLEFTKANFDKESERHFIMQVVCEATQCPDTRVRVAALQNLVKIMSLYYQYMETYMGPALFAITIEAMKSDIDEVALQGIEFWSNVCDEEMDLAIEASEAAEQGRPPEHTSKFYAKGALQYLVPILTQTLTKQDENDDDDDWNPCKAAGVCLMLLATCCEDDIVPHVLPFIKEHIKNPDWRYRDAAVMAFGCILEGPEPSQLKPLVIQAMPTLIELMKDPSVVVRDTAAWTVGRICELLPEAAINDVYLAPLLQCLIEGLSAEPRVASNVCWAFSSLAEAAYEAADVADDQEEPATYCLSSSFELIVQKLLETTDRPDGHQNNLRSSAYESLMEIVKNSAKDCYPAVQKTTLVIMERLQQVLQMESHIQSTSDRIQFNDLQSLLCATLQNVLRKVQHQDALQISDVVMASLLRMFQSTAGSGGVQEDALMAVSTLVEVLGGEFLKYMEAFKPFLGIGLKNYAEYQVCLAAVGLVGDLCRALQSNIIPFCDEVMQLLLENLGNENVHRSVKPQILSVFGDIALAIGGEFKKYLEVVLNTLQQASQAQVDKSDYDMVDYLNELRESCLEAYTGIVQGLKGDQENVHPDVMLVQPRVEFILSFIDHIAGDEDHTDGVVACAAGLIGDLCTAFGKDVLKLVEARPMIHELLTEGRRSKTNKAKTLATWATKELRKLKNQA
Chain of Kapβ2 (Q92973 whole entry): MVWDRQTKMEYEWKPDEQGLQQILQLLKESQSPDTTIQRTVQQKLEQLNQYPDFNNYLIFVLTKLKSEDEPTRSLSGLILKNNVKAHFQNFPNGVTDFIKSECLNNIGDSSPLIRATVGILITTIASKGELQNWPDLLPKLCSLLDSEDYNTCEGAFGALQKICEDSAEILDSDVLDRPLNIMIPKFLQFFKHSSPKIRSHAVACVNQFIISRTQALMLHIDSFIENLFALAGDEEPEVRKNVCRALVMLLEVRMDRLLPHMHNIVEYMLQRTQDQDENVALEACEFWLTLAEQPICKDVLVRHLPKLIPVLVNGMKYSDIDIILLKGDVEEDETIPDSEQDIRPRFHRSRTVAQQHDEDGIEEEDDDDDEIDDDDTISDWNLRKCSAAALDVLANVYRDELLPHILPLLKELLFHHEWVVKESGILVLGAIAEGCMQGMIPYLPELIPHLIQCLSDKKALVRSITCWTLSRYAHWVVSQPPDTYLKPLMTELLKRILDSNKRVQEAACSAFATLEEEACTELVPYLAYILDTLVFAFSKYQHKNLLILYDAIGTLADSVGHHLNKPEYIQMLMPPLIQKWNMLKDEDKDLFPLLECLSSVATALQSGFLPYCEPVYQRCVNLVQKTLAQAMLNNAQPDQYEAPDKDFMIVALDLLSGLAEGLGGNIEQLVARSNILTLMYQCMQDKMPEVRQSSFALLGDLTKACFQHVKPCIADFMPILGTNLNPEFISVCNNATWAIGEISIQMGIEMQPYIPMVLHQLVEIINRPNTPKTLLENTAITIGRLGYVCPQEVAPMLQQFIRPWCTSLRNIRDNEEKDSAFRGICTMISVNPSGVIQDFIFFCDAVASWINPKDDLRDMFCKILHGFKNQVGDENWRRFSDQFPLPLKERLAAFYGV
Chain of Snurportin1 IBB (Homo sapiens) (O95149 8-76): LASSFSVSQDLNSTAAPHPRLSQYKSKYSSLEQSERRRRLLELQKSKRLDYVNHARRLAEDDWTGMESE
Chain of hnRNP M PY-NLS (Homo sapiens) (P52272 41-70): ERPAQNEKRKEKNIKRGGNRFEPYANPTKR
Chain of hnRNP A1 PY-NLS (Homo sapiens) (P09651 320-357): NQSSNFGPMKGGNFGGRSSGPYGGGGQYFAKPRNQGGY

Row | Kd [1] [nM] | Kd [2] [nM] | Kd [3] [nM] | Kd [4] [nM] | Kd (PTHrP (Homo sapiens)) [nM] | Substance
1 | 10 | 42 | – | – | – | Kapβ2 (from UniProt Q92973)
2 | – | – | 2 | 2 | 2 | Importin-β (from UniProt Q14974)
